Assay results from the supplement of paper PMC9170038.

tested on: K4 kissing-loop RNA reporter; assay: apparent KD of K4 kissing-loop reporter; higher = weaker reporter binding; conditions: Eterna round: R107; input ligand: tryptophan 2.4 mM
Procedure: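 RNA-MaP round R107: designed RNA switches with theophylline, tryptophan, arginine or FMN aptamers are transcribed on-chip within common flanks. They are titrated with a labelled K4 kissing-loop RNA reporter in RNA-MaP buffer (100 mM Tris pH 7.5, 80 mM KCl, 4 mM MgCl2), without ligand or with the indicated ligand. Median apparent KD per design.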
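Note: bound reporter read as fluorescence of individual clusters on recovered sequencing chips by microscopy, with normalized cluster intensities fitted with a binding model.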

| Sequence | apparent KD of K4 kissing-loop reporter [nM] |
| --- | --- |
| UAGUGAAUAGAAGGAUAUUGAUAUGAAAGAUGCAGUGAUGUUGCCCGUAGCAGUCAGUAAUACGUGCAAGAAGGUCUGUGCGCGA [theeternabot_exclusion_KL_FMN_B_3] | 62.4 |
| CCAUUCAUCAGAAGGAGCGUCAAGUGAUGCUAUCCAGUGAUGUUGGAUAGCACGGAACAGUGACAGGUAGGUCGCUGAUGAGAGC [Arg B SS t8] | 131 |
| GCUAUGGUAGGAAGGAGCGCGGACGAUAUUUAUCGAGUGAUGUUCGAAUAAUUAAAUAAAACGCAGGUAGGUCGCCUACUAUAGC [Arginine B K4 27] | 94 |
| UGUACCGAGACAGGAUAUGUCGUCGAAAGACGAAAUGGAGUGAUGUUCCUUAAACUGCGAAAGCAGACAGAAGGGUCUUGGUACU [FmnBS 29 A10+U76] | 176 |
| UUUAUUAAGACGGCCGCCACUGAUUCAGAGUGAUGUUCUGAUAUUUUUUUAUAUAAUAAUAACAGCAGGACCGGGUCAAUUAUUA [JR_SSTryptoB_Sub013] | 192 |
| GAGGCCAAACGGAGUGAUGUUUCGUAUGAUACCAGCAGCGAAAGCUGCCCUUGGCAGCAUGCCACGGCCUCGGCAGGAAACUGCC | 339 |
| UACGCUGCCUGAGGAUAUAGAAACGAGUGAUGUUCGUGGAUAAGAGCCAGUGAUGUUGGGUUAUUUCUAGAAGGCAGGUAAAGUA [Exclusion FMN B GF6] | 100 |
| AACCGAGGUAAUCCACAAUGAUUAGAAGAUACCAGAUAUAUAAAUAUCCCUUGGCAGCUUUGAAUGAGUGAUGUUCAUUUGUCAU [KL-SSTheo-A11] | 104 |
| GUGACACGUGAUGAUACCAGUCCACGGAAGUUCCUUAGUGAUGUUAACCUUGCUUUUUCUGACCCUUGGCAGCAUUAGUUGAGAA [theeternabot_sameState_KL_Theo_B_42] | 237 |
| AGUAUUGAGUCGGCCGCCACUGGUUUAAUGAGUGUCAAUUCUGGAUCAAAGUGAUGUUUUGGAGCUAGGACCGGGACCAUUGUUA [#07 K4 Tryptophan B Exclusion] | 479 |
| UUGGCCCGGCCGGAAGGCCGGGCCUGCGAGCGAGGACCGGUACGGCCGCCACUCGGCGCAGUGAUGUUGCGUGGCCGCAAGGCCG [#2 Exclusion - Tryptophan A Attempt #1 (HarryS)] | 874 |
| AAGAGCUAGGCGGCCGCCACUAGUUGUGAACACAUACAAGCCAGUGAUGUUGGUAUGGUGGACGGUAGGACCGGGCCUAGCUGAA [Exclusion - Tryptophan B (Freestyle 16)] | 283 |
| CAGAUCACAGAGUGAUGUUCUGUGUCCGAAGGAGCGCGCUUCGGCGCAGGUAGGUCGCGGAUACAGUUGACGUACCAUCUAGACA [Arg A Ex t3c] | 507 |
| UCGACAGUGAACGAUACCAGCGUCACGUGGCUGGUGGUCACAUGAGUGAUGUUCAUGUAACGCCCUUGGCAGCGUGCACGUAUCA [KL-XTheo-B8] | 129 |
| ACACUAUCGUCAUAGACGGUAGUGAAAAGUGAGGAUAUGAGUGAUGUUAGAAGGCACUAAGACUGUAUCGAAUAGAUACAGUCAA [FmnA 4 #K4BetweenAptamer #OpenEnded] | 349 |
| GUCCACACUGCAGGAUAUGGAGGAAUAGCGAGGGAGUGUGGAAGCACACCUCUGGCAGUGAUGUUGCCAGAAGGGCGGUGCGGCG [Cemaorar] | 93.4 |
| AGGUCAGCAGGAAGGAGCGCCCUGACAGGUUGCUGCCGUGGGCAGUGAUGUUGCUCAGUCCGGCAGGUAGGUCGCCUGCUGACCU | 156 |
| CGCCGUAAGGCGAGCGCUCCCACUCCGGAAGGAGCGCCCGGAAGGGCAGGUAGGUCGCCGGAGUGAUGUUCCGGUGGAGGGCUCG [#2 Exclusion - Arginine A Attempt #12 (Inspired by Omei)] | 317 |
| AGUCCACUCUAAAGAGUGGACCUAAGGGAUACCAGUGAUGUUGGUCACCCUUGGCAGCCCACUGUCAUCGAUAAAGAUGGCAGGA | 117 |
| AAAAUAAAGCAGUCAAUCGGAGUGAUGUUCCGAGGACCGGUACGGCCGCCACUCGAGAGUCCAAAGGACUCAUGGCGAGACUGCA [#SwitchBubble 17 #K4Early] | 90.1 |
| ACGAUUUACAGAAGGAGCGUGUAUUUAACUACAAUUAUCUUAGCGAGUGAUGUUCGUUUUACACAGGUAGGUCGCUGUAUAUCGA [JR_ExcArginiB_Sub011] | 220 |
| UGUACCGAGUUAGGAUAUGUCGUCGAAAGACGAAAUGGAGUGAUGUUCCUUAAACUGCGAAAGCAGACAGAAGGAACUUGGUACU [FmnBS 29 U11+A75] | 476 |
| GAUGUCUAGAGAUCAUCUAGACACCUAGAUACCAGCAGAUAUAUCUGCCCUUGGCAGCUAGAACCAGUGAUGUUGGUAUAUGCUC [Theo A SS t3] | 229 |
| AGUGUUAGGUUAGAUACCAGCCGUCUGUGGAUAAUCCUCAGACCGCCAGUGAUGUUGGCAGGCCCUUGGCAGCUAACAGGACAGA [Mavebius] | 237 |
| UUUGGUUUCUCGGCCGCCACUCGUUGGUUAUGGGCCUCAGGGAUAUAGUGAUGUUAUGUAAAGAAGAGGACCGGGAGAAGGAAGG [ExTryptoB.Do] | 380 |
| CUAGGCCCUCGGCGGGACAUUGCGUGGGAAGGAGCGCAGAUAACUGCAGGUAGGUCGCCCAGUGAUGUUGGGCGAAUAUUGGUCA [Esinabige] | 110 |
| AAAUAGAUCAGUCACCCAGUGAUGUUGGAAGGAGCGUGCGAAAGCACAGGUAGGUCGCCAAAAUAAAAUUGGCUGAUCAAAAUAA | 195 |
